The results in this text go back to article PMC5698488.

For the test, the target named is BG505 Olio6 trimer (HIV-1 (isolate BG505)). As to the kind of experiment: SEC-MALS.

On to BG505 Olio6 trimer (complex), for which the stoichiometry N (usually a count of units in the complex or per binding partner) came out at 3.
